The values below come from publication PMC9129080, “Control of fruit softening and Ascorbic acid accumulation by manipulation of SlIMP3 in tomato” (Plant Biotechnology Journal, 2022).

Substrate in series [1]: O=P(O)(O)O[C@@H]1[C@@H](O)[C@H](O)[C@@H](O)[C@H](O)[C@@H]1O
In words: phosphate release, malachite green. In kind it is biochemical, Solanum lycopersicum. The conditions noted are these: 3.5 mM MgCl2, 50 mM Tris-Cl pH 7.0, 25 °C.

Substrate in series [2]: O=P(O)(O)OC1O[C@@H](CO)[C@@H](O)[C@@H](O)[C@@H]1O
In words: phosphate release, malachite green. In kind it is biochemical, Solanum lycopersicum. To be noted: 3.5 mM MgCl2, 50 mM Tris-Cl pH 7.0, 25 °C.

B1: SlIMP3 (Solanum lycopersicum) (protein)
chain: MAQNGSVEQFLDVAVEAAKKAGEIIREGFYKTKHVEHKGMVDLVTETDKACEDFIFNHLKQRFPSHKFIGEETTAACGNFELTDEPTWIVDPLDGTTNFVHGFPFVCVSIGLTIEKKPTVGVVYNPIIDELFTGIDGKGAFLNGKPIKVSSQSELVKALLATEAGTNRDKLVVDATTGRINSLLFKVRSLRMCGSCALNLCGVACGRLDLFYELEFGGPWDVAGGAVIVKEAGGFVFDPSGSEFDLTARRVAATNAHLKDAFIKALNE
notes: tag removal not mentioned
In general, Km refers to the substrate concentration at which the rate is half of its maximum. As to B1, the Km in series [1] stood at 280 µM; in series [2], 290 µM.
